The values that follow come from patent US20070219354A1.

This experiment has as its target 2081/anti-NF IgG, polyclonal antibody generated against the SEVNF peptide. In words: ORIGEN ECL competition against biotinylated-SEVNF; reference SEVNF.

B1: SEVNL peptide (peptide)
peptide: SEVNL
In turn, B1 returned a fold less effective in competition than SEVNF of 100 fold.
